# B1: hD1N-E5 (human DLL1 from the N-terminus through EGF-repeat 5) (domain or fragment, UniProt O00548 18-402, looked up)
# chain: QVWSSGVFELKLQEFVNKKGLLGNRNCCRGGAGPPPCACRTFFRVCLKHYQASVSPEPPCTYGSAVTPVLGVDSFSLPDGGGADSAFSNPIRFPFGFTWPGTFSLIIEALHTDSPDDLATENPERLISRLATQRHLTVGEEWSQDLHSSGRTDLKYSYRFVCDEHYYGEGCSVFCRPRDDAFGHFTCGERGEKVCNPGWKGPYCTEPICLPGCDEQHGFCDKPGECKCRVGWQGRYCDECIRYPGCLHGTCQQPWQCNCQEGWGGLFCNQDLNYCTHHKPCKNGATCTNTGQGSYTCSCRPGYTGATCELGIDECDPSPCKNGGSCTDLENSYSCTCPPGFYGKICELSAMTCADGPCFNGGRCSDSPDGGYSCRCPVGYSGFNC
# notes: human DLL1, N-terminus through EGF5; source: Expi293F, transiently transfected, purified from the medium (Ni-NTA, Superdex 200)
# B2: D4N-E5 (DLL4 from the N-terminus through EGF-repeat 5) as used in the N2 binding experiment (domain or fragment, UniProt Q9NR61 27-400, looked up)
# chain: SGVFQLQLQEFINERGVLASGRPCEPGCRTFFRVCLKHFQAVVSPGPCTFGTVSTPVLGTNSFAVRDDSSGGGRNPLQLPFNFTWPGTFSLIIEAWHAPGDDLRPEALPPDALISKIAIQGSLAVGQNWLLDEQTSTLTRLRYSYRVICSDNYYGDNCSRLCKKRNDHFGHYVCQPDGNLSCLPGWTGEYCQQPICLSGCHEQNGYCSKPAECLCRPGWQGRLCNECIPHNGCRHGTCSTPWQCTCDEGWGGLFCDQDLNYCTHHSPCKNGATCSNSGQRSYTCTCRPGYTGVDCELELSECDSNPCRNGGSCKDQEDGYHCLCPPGYYGLHCEHSTLSCADSPCFNGGSCRERNQGANYACECPPNFTGSNCE
# notes: DLL4, N-terminus through EGF5; it may be the mouse fragment m2); The sentence names hD1N-E5 as human but prints D4N-E5 without a species prefix; source: Expi293F, transiently transfected, purified from the medium (Ni-NTA, Superdex 200)
# B3: mDLL1 fragment (mouse DLL1 from the N-terminus up to and including EGF5) (domain or fragment)
# chain: not shown
# notes: mouse DLL1, N-terminus up to and including EGF5; also called DLL1 (from the N-terminus through EGF-repeat 5); D1N-E5; source: Expi293F, transiently transfected, purified from the medium (Ni-NTA, Superdex 200)
# B4: mD4N-E5 (mouse DLL4 from the N-terminus up to and including EGF5) (domain or fragment, UniProt Q9JI71 27-401, looked up)
# chain: GSGIFQLRLQEFVNQRGMLANGQSCEPGCRTFFRICLKHFQATFSEGPCTFGNVSTPVLGTNSFVVRDKNSGSGRNPLQLPFNFTWPGTFSLNIQAWHTPGDDLRPETSPGNSLISQIIIQGSLAVGKIWRTDEQNDTLTRLSYSYRVICSDNYYGESCSRLCKKRDDHFGHYECQPDGSLSCLPGWTGKYCDQPICLSGCHEQNGYCSKPDECICRPGWQGRLCNECIPHNGCRHGTCSIPWQCACDEGWGGLFCDQDLNYCTHHSPCKNGSTCSNSGPKGYTCTCLPGYTGEHCELGLSKCASNPCRNGGSCKDQENSYHCLCPPGYYGQHCEHSTLTCADSPCFNGGSCRERNQGSSYACECPPNFTGSNCE
# notes: mouse DLL4, N-terminus up to and including EGF5; also called DLL4 (from the N-terminus through EGF-repeat 5); pLexM-D4N-E5-Avi-His; source: Expi293F, transiently transfected, purified from the medium (Ni-NTA, Superdex 200)
# How the values were obtained:
# N2(1–15)-Fc = biological target: T1, N2(1–15)-Fc (human, UniProt Q04721 26-605); test: BLI; BLItz instrument; N2(1–15)-Fc captured on protein A biosensors, ligand samples of varying concentration; HBS-P buffer with 0.005% surfactant P20 and 5 mM CaCl2; equilibrium curves fitted with a one site specific binding model; conditions: both partners purified
# T1 construct: human NOTCH2, printed as N2(1–15); no catalogue number is printed; Captured on protein A sensor tips by its Fc; also called human N2; human NOTCH2; source: bought: R and D systems, used without further purification
# T1 sequence (looked up): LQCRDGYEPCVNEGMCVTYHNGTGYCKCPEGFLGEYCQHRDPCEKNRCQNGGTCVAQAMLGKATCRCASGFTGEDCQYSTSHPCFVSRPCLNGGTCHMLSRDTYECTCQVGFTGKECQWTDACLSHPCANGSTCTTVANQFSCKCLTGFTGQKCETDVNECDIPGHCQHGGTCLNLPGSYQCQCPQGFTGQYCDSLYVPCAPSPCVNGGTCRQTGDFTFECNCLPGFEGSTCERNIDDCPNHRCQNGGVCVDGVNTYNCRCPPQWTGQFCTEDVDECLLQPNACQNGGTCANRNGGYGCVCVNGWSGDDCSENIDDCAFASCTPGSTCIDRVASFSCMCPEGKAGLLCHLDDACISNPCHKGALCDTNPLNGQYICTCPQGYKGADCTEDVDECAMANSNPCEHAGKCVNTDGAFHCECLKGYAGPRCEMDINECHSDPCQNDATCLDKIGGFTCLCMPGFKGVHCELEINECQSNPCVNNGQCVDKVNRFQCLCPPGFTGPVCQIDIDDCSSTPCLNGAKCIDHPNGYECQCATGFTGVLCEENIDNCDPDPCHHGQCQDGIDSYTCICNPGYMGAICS
# [1] = biological target: T2, biotinylated human N1 ectodomain fragment containing EGF repeats 6–15 (human, UniProt P46531 216-604, biotin on the Avi tag (BirA co-expression)); test: BLI; BLItz instrument; biotinylated Notch1 fragment loaded on streptavidin biosensors, dipped into ligand samples of varying concentration until equilibrium; HBS-P buffer with 0.005% surfactant P20 and 5 mM CaCl2; equilibrium curves fitted with a one site specific binding model; conditions: both partners purified
# T2 construct: human NOTCH1, EGF repeats 6–15 (amino acids 216–604); also called hN1; N1 fragment; source: Expi293F, transiently transfected (co-transfected with BirA and POFUT1), purified from the medium (Ni-NTA, Superdex 200); not shown: Avi (biotinylation) tag, C-terminal, kept
Binder,Kd (N2(1–15)-Fc),Kd [1]
B1,360 nM,–
B2,1280 nM,–
B3,–,1560 nM
B4,–,430 nM

# Reference: publication PMC6202052, “The ectodomains determine ligand function in vivo and selectivity of DLL1 and DLL4 toward NOTCH1 and NOTCH2 in vitro” (eLife, 2018)
